From patent US20110165161A1, “ANTI-EPCAM ANTIBODIES THAT INDUCE APOPTOSIS OF CANCER CELLS AND METHODS USING SAME” (priority 2009, published 2011)

Columns and labels:
[1] = tested on: Lung cancer NCI-H520 cells; assay: Antibody cytotoxicity assay (Annexin V + PI), NCI-H520; format: cell-based; details: 1, 3 and 10 μg/ml, overnight
Procedure: (§1) After a 17-20 hr incubation at 37° C., cells were stained with 0.3 μl of FITC-conjugated Annexin V (Strong Biotech Corp. Cat. No. AVK250) in 50 μl Annexin V binding buffer (Strong Biotech Corp. Cat. No. AVK250) at RT for 20 min. After wash, the cells were then stained with 0.3 μl of propidium iodide in 200 μl Annexin V binding buffer. Annexin V and Propidium Iodide were used as a joint indicator for cell death. The data were acquired with BD FACSCalibur based on an acquisition of 3,000-5,000 cells and analyzed with the Cell Quest software. The combined percentages of the Annexin V+/PI+, Annexin V+/PI− and Annexin V−/PI+populations were considered as dead cells.

[2] = tested on: Breast cancer T-47D cells; assay: Antibody cytotoxicity assay (Annexin V + PI), T-47D; format: cell-based; details: 1, 3 and 10 μg/ml, overnight
Procedure: as §1

[3] = tested on: CHO parental cells; assay: FACS binding of anti-EpCAM antibodies to CHO parental cells; design: species or system Chinese hamster; details: antibody 0.1 μg/ml; HPS at 300x dilution
Procedure: 1×10^5 CHO/EpCAM or CHO parental cells were seeded in each well of a v-bottomed 96-well plate and incubated with purified anti-EpCAM antibodies or mouse IgG control antibody 9E10 at concentration of 0.1 μg/ml. A 300× dilution of human cell hyper-immune serum (HPS 300×) was used as binding positive control for both cell lines here. After 1 hr incubation at 4° C., cells were washed twice with 200 μl FACS buffer (1×PBS containing 1% FBS), stained with 100 μl of 1 μg/ml goat-anti-mouse IgG-PE (Southern Biotech, Cat. No. 1032-09) in FACS buffer and then incubated at 4° C. for 30 min. Cells were washed thrice with FACS buffer and analyzed by flow cytometry (BD LSR, BD Life Sciences).

[4] = tested on: NCI-H358 lung cancer cells; assay: Cell death in NCI-H358 lung cancer cells (Annexin V + PI); format: cell-based, human; details: mean of 5 experiments; mAb 10 μg/ml; 17 hr
Procedure: 5×10^4 NCI-H358 cells were seeded to each well of a 96-well plate, and then 10 μg/ml of anti-EpCAM or control (9E10) mAbs diluted in the medium was added into the cells. After a 17-hr incubation at 37° C., the cells were stained with 0.3 μl of FITC-conjugated Annexin V (Strong Biotech Corp. Cat. No. AVK250) in 50 μl Annexin V binding buffer (Strong Biotech Corp. Cat. No. AVK250) at RT for 20 min. After wash, the cells were then stained with 0.3 μl of propidium iodide in 200 μl Annexin V binding buffer. Annexin V and Propidium Iodide were used as a joint indicator for measuring cell death. The data were acquired with BD FACSCalibur based on an acquisition of 3,000-5,000 cells and analyzed with the Cell Quest software. The combined percentages of the Annexin V+/PI+, Annexin V+/PI− and Annexin V−/PI+populations were considered as dead cells.

[5] = tested on: Prostate cancer LNCaP cells; assay: Antibody cytotoxicity assay (Annexin V + PI), LNCaP; format: cell-based; details: 1, 3 and 10 μg/ml, overnight
Procedure: as §1

[6] = tested on: Pharynx cancer FaDu cells; assay: Antibody cytotoxicity assay (Annexin V + PI), FaDu; format: cell-based; details: 1, 3 and 10 μg/ml, overnight
Procedure: as §1

[7] = tested on: Gastric cancer NCI-N87 cells; assay: Antibody cytotoxicity assay (Annexin V + PI), NCI-N87; format: cell-based; details: 1, 3 and 10 μg/ml, overnight
Procedure: as §1

[8] = tested on: Colorectal cancer DLD-1 cells; assay: Antibody cytotoxicity assay (Annexin V + PI), DLD-1; format: cell-based; details: 1, 3 and 10 μg/ml, overnight
Procedure: as §1

[9] = tested on: Ovarian cancer NIH:OVCAR-3 cells; assay: Antibody cytotoxicity assay (Annexin V + PI), NIH:OVCAR-3; format: cell-based; details: 1, 3 and 10 μg/ml, overnight
Procedure: as §1

Molecule | Induction of cell death (in words) [1] | Induction of cell death (in words) [2] | Binding (FACS, Mean fluorescence intensity (MFI)) CHO [3] | % of Annexin V + PI staining (untreated background subtracted), Mean ± SEM [4] [%] | Induction of cell death (in words) [5] | Induction of cell death (in words) [6] | Induction of cell death (in words) [7] | Induction of cell death (in words) [8] | Induction of cell death (in words) [9]
6D11: murine anti-human EpCAM monoclonal antibody (IgG1, K), hybridoma m338-6D11.8; VH SEQ ID NO:23, VL SEQ ID NO:25 (antibody, listed as Mus musculus, V domains shown) VH: EVQLVESGGDLVKPGGSLKLSCAASGFAFDSYGMSWIRQTPGTRLEWVATISSGGYYTYYEDNVKGRFIISRDNAKNTLDLQMSGLKSEDAATYYCARRGNYDVDYYAMDYWGQGTSVIVSS VL: DVVLTQIPLSLPVSLGDQASISCRSSQSLEHSNGNTYLHWYLQKPGQSPKLLIYKVSNRFSGVPDRFSGSGSGTDFTLKISRVEAEDLGVYFCSQSTHVPPWTFGGGTKLEFKR | substantial cell death | substantial cell death | 5 | 42.4 ± 1.0 | substantial cell death | substantial cell death | substantial cell death | substantial cell death | substantial cell death
4D2: murine anti-human EpCAM monoclonal antibody (IgG1, K), hybridoma m338-4D2.20; VH SEQ ID NO:19, VL SEQ ID NO:21 (antibody, listed as Mus musculus, V domains shown) VH: EVQLVESGGDLVKPGGSLKLSCAASGFAFDSYGMSWVRQTPGKRLEWVATISSGGYYTYYQDSVKGRFTTSRDNAKNTLDLQMSSLKSEDSAIYYCARRGNYDVDYYAMDYWGQGTSVTVSS VL: DVVMTQTPLSLPVSLGDQASISCRSSQSLVHSNGNTYLHWYLQKPGQSPKLLIYKVSNRFSGVPDRFSGSGSGTDFTLRISRVEAEDLGVYFCSQSTHVPPWTFGGGTKLEIKR | substantial cell death | substantial cell death | 5 | 43.6 ± 0.9 | substantial cell death | substantial cell death | substantial cell death | substantial cell death | substantial cell death
2D11: murine anti-human EpCAM monoclonal antibody (IgG1, K), hybridoma m322-2D11.19; VH SEQ ID NO:15, VL SEQ ID NO:17 (antibody, listed as Mus musculus, V domains shown) VH: QIQLVQSGPELKKPGETVKISCKASGYTFTNYGMNWVKQAPGKGLKWMGWINTNTGEATYVEEFKGRVVFSLETSASTAYLQINNLKNEDTATYFCARIGYVWYFDVWGAGTTVTVSS VL: DIVMSQSPSSLAVSAGEKVTMSCKSSQSLFSSRTRKNYLAWYQQKPGQSPKLLIYWASTRESGVPDRFTGSGSGTDFTLTINSVQAEDLAVYYCKHSNNLFTFGSGTKLEIKR | substantial cell death | substantial cell death | 6 | 39.4 ± 3.0 | substantial cell death | substantial cell death | substantial cell death | substantial cell death | substantial cell death
